Results on 16 sequences are retold here after a protein production outcome set (Wang et al. 2014).

The nature of this data set: label from the status in PepcDB records.
Turning to “MNKKSLLAAVLFAAVMPVSFAQNANVKGAESLSGGSKPNFPEARTLIGEAMKNPETMNDAKTWFVAGQVEERLFTSENLKQTVNQEPDRAMMNDALLRILPFYLKADQLDNMPDQKGKVKPKFTKKIMESLKGNHLYYINAGGYYMEKKDYKKALEAFDQFMQIKELPMFAAVPEISAQDSNSMMVGFFSAVCAYQANDLDRTLEICNKIKDVPYRQNDVYQLIATVYQDKKDTEGYIRMLEEGVQKFPKEAYYLLNLINKYIETGRTEEAISSLERAIADDPQNVQLYDVMAKLYENTQDYDKAEEWLKKGLALDPDNASVCYDLGRVYYNRAADLKGADQVNAETEAKAKEYLQKALPLLEKAYSINPDESWYVLRNVYYNLKMNDKYKELTERHEGK”, the protein production result was “failed”. “MAEEQAATAMETSAVEKQPETTTEAEAPSLTTKRMVVAIDESDSSFYALQWVIDHFSNLLLTTAAAEAESGMLTVIHVQSPFNHFAAFPAGPGGATAVYASSSMIESVKKAQQETSAALLSRALQMCRAKQIRTETLVLEGEAKEMICEAVEKMHVDLLVVGSRGLGKIKRAFLGSVSDYCAHHANCPILIVKPPKEMTK”: the protein production entry is listed as “failed”.

Turning to “MFKIYNNGNPIPMGYSQAVENNVQITNFALFSAAAIGVELCLFDEQNQETRLPMVRTENVWHLAVTGVKTGTEYAFRIHGEFANPQKLILDPYAKAVNGKPDLSSEESRSWFLLSDNRDNAHLAPRAVVIS”, the protein production result was “failed”. Consider “MHYAFSRIRLRSFFGWMIIGVFLIMIPLDLTNVSENTMEVISQITVFFVFPLLWLYVKTNKNNVVFNSFFDKPGRLSWGLIVLATIMGMIFSVGISQIQFYILAHTLPNFLVTMLEDGNVINTSNVYMTIFTFISACVLAPIMEEVIFRGFFLQRMAYKWGIKKAVIISSIIFGLGHFDVIGAFMFGVVMCLLYIKTKNIWTNIAVHALNNLIATSMQFFGGEESGTISITELQAQSNLWIGIGLTVVGLLWLIPYVWKQWRTVKEVGVPPVRFINEQKVVSSSQENEVYSQVILTDRLMAIELPDEAVNKLRLEENDYVTVSVEEDKIVIKKAHNR”, for which the protein production result is “failed”. On to “MRGLAACYSEHAIKVSDTYCSGPSNHSYISPTLPPSIPDTVTTTYRSNLPSSDKPVSVSLTWSDNLTVVISTPPKSYSVSLRKPKGSRKLTSSSGSLNAEILWDLSEAEYENNGPEPIRRFFVVVVVNSEITLGVGDVDHERDTSSSSSWRVSKTERFSGTCWLTTKAQFSDVGRKHEIQIQCGGGGGGGGEEGYLWKVKSPETMSVYVDKRKVFSVKKLKWNFRGNQTMFFDGMLIDMMWDLHDWFYKETLSSVSTSSSSKTASSSSSSSTSSSTPPCAVFMFRRRSGLDSRLWIDEDEQESEMKKNIGSRDEKHSFSLIICASKK”, for which the protein production result is on record as “failed”. As for “MPGPKKPVTPEDIIRLTFVSNPSVSPEGDKVAYLATKADEKENTYRSGIWLAEEDSYRPLTGGPYDRCPAWSPDGEIIAFSRTVNSNQRKRHYIAIVSPKGGEPQVLHESVSPATSIKWSSQGSMIGYLSRKPTGREWKPYSERDVLEIDRIPVWFDSEGWVFDRYWGLTVISYPGGEVLLEKGGVNYNIVDFDFAPDDNTIVYAVSTDMKKPFIHKLVLWDLASGREKTLIEGLTIAAVAFDPRGRYIAVKANDRKRGLFSHYKIFVYDLNSEEFVCLTCDLDLNTLNTVNSDARGPSCLRGMYWDDNGHLYYGVHNAGRMVVMKSRPLGEAEAVLDPSSATVDDFSISRGGDTIAYVKMGPTSPPDIYIYRDDNEYRLTDHNAWFAESRSLAEPVRLQVQSPLGGSIDAWILLPPDAGECSGCLPWILYIHGGPKTSYGYAFIHEFQMLASQGFAVIYSNPRGSDGYSEEFADLRGRYGVDDYSELMKVVDEALSDFPQLDPQRGGVTGGSYGGYMTNVIVTKTRRFKAAVTQRSCSNWISFYGESDIGWYFAPELISAQEPWRDLEKYVDFSPLFSVENIETPLLIIHSTEDFRCPLSGAIQLFTALKLKGVETRLLVFPGENHNLSRSGTPKRRVARLRAIASWFKEHLGSQQRG”, the protein production result is given as “failed”.

In the case of “MLLSGWGKFVRWLLVLLSILVIIIGINLILDGVYGFGTFSTTQMYQVAKDPLIGVLIGILATALVQSSTTTTTLTVTAVGTGIVSVPVAIPIILGANIGTTITAMLVAFSYVGERREFKRAFTVAAMHVWFNVLVILVLFVVELLFHPFRTISGAIATEITLTTGGSLPTSGVMTKIFDPPTQLLGMNGLIGSIGNPSISAIVCLVVGTILILISVRAMSSQIRTITAATVTSIMDKVINPENSPKATILSNFWSFILGVLFTLMVTASSVTVASMQPVAASGVVKQKPLLGVILGANVGTTVTAMFATFAIVSDQGEFAIQAALIHLIVNFTGALLVLCIPQLANVIIHLAEKTANLTARSYSITLATIVTAYVLVPSAVLMIYFFI”, the protein production result was “failed”. To “MELVIILLALSLLMFVAYRGFSVILFAPIFALFAVFLTEPSYVLPFFSNIFMEKMVGFIKLYFPVFLLGAIFGKVVEMSGIADSIAKTIIELVGEKRTILAIVLMGAILTYSGVSVYVVVFAVYPFAAKLFRQANIPKRLIPGTIVLGAVTFTMDALPGSPQIQNVIPTTFFKTDIYAAPILGIVGAIFVLTVGLLYLESRRKKAKAEGEGYFGFNDGNTEMAASLQVEQKNMPLTNNIEITRAQQLITFIPLILVGVMNKVFTIMIPKWYPSGFDFSAIGMKAFGKVELSAVVGIWSVELALIIGILTTLLLYWKRVVTGFQAGLNTSIGGALLATMNTGAEFGFGGVIAALPGFAIMRDGISATFTNPLVNGAVTTNILAGITGSASGGMGIVLSAMGDKFIAAANQFDIPLEVMHRIVSMASGGMDTLPHNGAIITILTVTGLTHKQSYKDIFAITILKTVAVFLVIAFYTLTGLY” belongs “failed”. Take “MKLGKAQSLEDVAGLVGACAVTILAVIIISALYVGREVFVPVALAILLSFVLARPVNFLQSLRVPRAIAAISTVLFAFAVIFALGSLIATQLSRLADDLPQYQSTIQSKITSLRGVTGGSTTLERAEGMLQNLSKELNKPKNAPAPSLSNPPTSSSRPVTPVPVEVLQPDPGTLANLRSLIAPLISPLATTGIIVIFVIFILLQREDLRNRLIRLAGTRDLQRTTAALDDAASRLSRLFLNQLLINSGFGVLIGTGLWIIGVPSPALWGILAAVLRFVPYIGSIISAAFPLTLAVAVDPGWSMLVWTAILFFVIEPAIAHVVEPMVYGRSTGLSPVAVVISATFWTALWGPIGLVLATPLTVCLVVLGRHVERLAFLDVMFGDRPALSPPEIFYQRMLAGDPAEAAEKAEQFLKERSLSSYYDDVALKGLQLAQADLDRDALDAVRLTRIKETVQEFTEDLTDEIDQAPDGDEATTDAEAAAAVEVTPVDHADDDIAVLKPADLKPGWQGAAPVMCIGGRSQLDEAAALMLAHLCRVHGIGARVEPSSALSTKNIFGLDVSNVALICLSYLEASNTTHIRYAVRRLRRKAPHAKIIVALWSAETPQLADTNESAQADATVLTLRDAVKYCVEEAIIEPPPQTIEMPVISEAV”: the protein production entry is “failed”. Regarding “MAEASATEPERPDQESADDAVIATRALTKRYRGGQLAVDGLDLTVPAGSVFGFLGPNGSGKTTTIRMLMGLIEPTSGSARVLGRPMPRAARAVLPRVGALIEGPALYGFLSGRDNLLRYDAADPTADPRTRRERVAAALDRVGLAAAGGKKAKAYSLGMKQRLGLAAALLQPRRLLVLDEPTNGLDPQGMREIRSLVRELASDGTTVFLSSHLLDEIEQVCTHAAVMAQGRLITQGAVADLAAGARGRLVVTTPDAGDAARVLKEQGAADVVVDGDRVTAEPPERDLAEVNAALVAARVRVRGFVVERASLEDAFVALTGEGFDVAG”, the protein production entry is “failed”. As to “MPSVSVNKQGIVKVNSALNMRSGPGSNYGVIGTLRNNDEVEIIKEVDGWYEIKFNGKSGYVSSQYIKVLEHHHHHH”, the protein production result is reported as “not failed”.

On to “MDEKNIVALLGQPNVGKTTLFNHLTGMKQRIGNWPGVTVEKKEGFFKKNNENYVVVDLPGIYSLMSDSIDQKIARDYIVENSKITVIDVIDTPNINRNLYLTIQLLELGISPILCLNLIDEAEKFGIYVNDQKLSEKLGVPVIRTSGRHKIGIDNLKNALYEFKPTEPVKITYSSLLEETIEKIIDKLENSQYKLDEIYARLPKRWIAISLLEKDPDVVNKFSKYPEFIKFVKDLKIEIENEIKHDVESYVVEQRYKKCDEILAGVMVNSELYEDIDTIVIHPVYGSLIFGVVLYTMYNFVFGLGDIFSGFIGSFFEILGNYLMNILPESFSGVIIDGLLAGVGGVLEFFPIVFLIMFSLSTLEDTGYLSRVTALTHSVMSTMGLSGKSFIPMITGFGCSVPALMGTRFISSHKERLITLLVTPLVPCSARFVIIGFFASFFFIEHAALFTLSILAITFAMLFIVSYVLSKFIKGEAEEYIFELPPYRIPDWDNIIKMTWAKSKEFLKKAGTVIAAGSILFYGFVNYPSPDANYAAVVGKIIEHVTQYMGLDWRAAISLIFGIFAKELVVSSFSILYPENISTAFSPLKAFVLTLVSVLYIPCLATLATLYLETRSLKWTAFGIGYNLVLATLVGIITYNIGTMLGF”, for which the protein production entry was “failed”. To “MKKWWMLTICIVFIVAAVVPVRAAAASHPLFANVIVVFQQQVDEQAVKTLHGNVTKRFEVIPAVAATLPVTAVELLRRWPGVDYVQQDTTVAIDGQITDWGVEKVKAPVMHTHGVTGKGVKIAILDTGVDLKHPDLRVVGGACVLSYCPNSYQDDNGHGTHVAGIIAAKDNDIGTVGVAPNASIYAVKVLDRYGEGNVSDILSGIEWAMKHRVDIINLSLAAPEDAPALKAAIRKAYESGILVVAAAGNNGYANGTGDTVEYPAKYDSAIAVSAVNKENVRLPYSATGPAIEVAAPGEGVYSTVPVALDGDGRRDGYTHMSGTSMAAPFVTGVLALYKQQYPERTNIELRQMLRDRALDLGTPGRDPWYGYGLVRAVSNQPPELKVKLLSVKKGEVAFSVTLSGSAVKGYRVYRNGKQIETLQTAGTYTDYVVKGTYQYEFASIRNDGAESALTAPITVNVPDPYYKDVSASAWYMPEIAYLSSRGIVSGYNNGTIQPYNTITRAEVAVMLGRALHLDATKRATVFRDVASSDFASGYIQSAYERGLINGYPDGTFRPQQPITRAETAIILSRAYPLPGGSSMMFKDVTARVTGHEAIAKLAAARIAEGYPDGTFRPYQFVKRLEFFVFTARADNERFR” belongs “failed”; to “MIKISVIIPIYNAENYIEKAFSSLKNQTLAQNEFEILCIDDKSTDNSLGKLKQLSKIHKNMRIINLHKNSGGPMIPRNKGIKEAKGKYIIFLDNDDYLGEEALERLFIQAEKNQSEVIFGKYVGINGRGVPQSQFKKGNRNEADILADNLVYTLAPHKMFQTAFLKTKKIYFDPNILIGEDQYFVMKAYVNAKVITVLADYDYYYVVSRGDENLSIKESKMDPREICKVVPAVVKEIEASPLHPTYKKTLIRAYIQRYFNDYITGNYNLDYKNMSERQKTFVQVMKDTIVCHLDEKMKNELPTKTRFMIDIIAENNPEKLIDVRMQMENFSKNQVVKVENGYIKGRFRKMRPQLAYDDVYDINHLNSSKVQLHSVTLQNNNYLLDISLEQSLLTRFQTALRLCLKERDGNLEIWISPLKMLSTERGIYAVDSTLFNHTCIWDLFIESEINGFKNRKRVGKDRDFEEIVSSNNTPLLIQNNSYQIKAYFTTPFSNLSFQIISE”, “failed”. To “MGHHHHHHSHAHTTTSMEIFGSPEQVWQLIGGFNSLPDWLPYIPSSKLTEGGRVRHLANPDGDTIIERLEVFNDKERYYTYSIMNAPFPVTNYLSTIQVKEGTESNTSLVEWSGTFTPVEVSDEEAINLFHGIYSDGLKALQQAF” belongs “not failed”. Take “MDNSGIYVGLDIGTTSIKVIVAERVKGQMNVIGVGSARSNGLSRGVIVDIDKAAETIRSAVRQAEEKASIEIKKVIAGVPANLVKIERCRGMIAVADESKEINNEDVQNVAAAALVQSLPPEREVLDVIPDEFVVDGFDGIKDPRGMVGVRLEMHGTLFTGPKTIIHNTRKALEKAGLQIEQIVIAPLALSSLVLNDGEQDFGSIIIDMGGGQTTAAVIHDHQLKYTYVDQEGGQYITKDISVVLNTSIENAEKLKRDYGYADAQQASDDELFPVDVVGQSTPEQISEQYLAEIIEARLDQIFDKVKQHLDEIRALELPGGIVLTGGVAALPGITDLAAQRFGTRVRVFTPNQMGLRHPSFDEALAVIKYQAALSEVTLLVKSALTGDTRASVALEFADTTPAPSQPAAQPKKATKKQSAPQAPQEQADPDHKGTVERVKGFFNHFFD”: the protein production entry was “failed”.
